According to paper PMC6237815, “Structural insights into DNA degradation by human mitochondrial nuclease MGME1”:
Positions count from the first letter of the chain named.

B1: DNA3 (mixed)
DNA 1: GGATCCTTCTTCTTCTTC
DNA 2: GGATCCTTCTTCTTCTTC

How the values were obtained:
HsMGME1 WT [1] = molecular target: T1, HsMGME1 WT (Homo sapiens, UniProt Q9BQP7 21-344); test: crystal structure (Se-SAD and native); three of four molecules contact only the 3' overhang, one contacts duplex and overhang; No solution binding assay; crystals at 18 C, protein 10 mg/ml in 20 mM Tris pH 8.0, 200 mM NaCl, 1 mM DTT, protein:DNA 1:1.2; DNA2: phosphate-citrate pH 4.2, 20% PEG300; H180Q-DNA2-Ca2+: 0.1 M CHES pH 9.5, 20% PEG 8000; DNA3: 0.1 M HEPES pH 7.5, 0.8 M NaH2PO4, 0.8 M K2HPO4; details: protein: recombinant; tags: none expected (His-SUMO removed by Ulp1); self-complementary 6-bp duplex GGATCC, 3' overhang 12 nt on both strands; 2 copies of the strand
T1 sequence: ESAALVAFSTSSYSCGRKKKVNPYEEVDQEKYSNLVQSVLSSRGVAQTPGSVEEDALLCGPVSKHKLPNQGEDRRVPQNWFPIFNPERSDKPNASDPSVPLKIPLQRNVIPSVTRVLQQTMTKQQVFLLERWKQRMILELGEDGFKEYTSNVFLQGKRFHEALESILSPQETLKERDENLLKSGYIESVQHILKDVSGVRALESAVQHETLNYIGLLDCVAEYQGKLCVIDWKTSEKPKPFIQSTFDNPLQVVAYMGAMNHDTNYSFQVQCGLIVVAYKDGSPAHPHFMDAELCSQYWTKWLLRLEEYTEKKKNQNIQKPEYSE

HsMGME1 H180Q = molecular target: T2, HsMGME1 H180Q (Homo sapiens, UniProt Q9BQP7 21-344, H180Q); test: crystal structure; one Ca2+ at A-site; acetate; 30 mM CaCl2 in sample; No solution binding assay; crystals at 18 C, protein 10 mg/ml in 20 mM Tris pH 8.0, 200 mM NaCl, 1 mM DTT, protein:DNA 1:1.2; DNA2: phosphate-citrate pH 4.2, 20% PEG300; H180Q-DNA2-Ca2+: 0.1 M CHES pH 9.5, 20% PEG 8000; DNA3: 0.1 M HEPES pH 7.5, 0.8 M NaH2PO4, 0.8 M K2HPO4; details: protein: recombinant; tags: none expected (His-SUMO removed by Ulp1); single strand
T2 sequence: T1 sequence with H160Q

HsMGME1 WT [2] = molecular target: T1, HsMGME1 WT; test: crystal structure (1.75 A); CaCl2 in the sample (10 mM), but no Ca2+ bound at the active site; No solution binding assay; crystals at 18 C, protein 10 mg/ml in 20 mM Tris pH 8.0, 200 mM NaCl, 1 mM DTT, protein:DNA 1:1.2; DNA2: phosphate-citrate pH 4.2, 20% PEG300; H180Q-DNA2-Ca2+: 0.1 M CHES pH 9.5, 20% PEG 8000; DNA3: 0.1 M HEPES pH 7.5, 0.8 M NaH2PO4, 0.8 M K2HPO4; details: protein: recombinant; tags: none expected (His-SUMO removed by Ulp1); single strand

Row | Binder | binding result (HsMGME1 WT [1]) | binding result (HsMGME1 H180Q) | binding result (HsMGME1 WT [2])
1 | B1 | binds | – | –
2 | AACAACAACAAC (ssDNA) [ssDNA2] | – | binds | binds
